In patent publication US20150087581A1 (AURIGENE DISCOVERY TECHNOLOGIES, published 2015):
Where no end group is shown, it is not given here.

Biological target: T1, recombinant hPDL-2 overexpressed on HEK 293 cells (human, UniProt Q9BQ51 20-273)
T1 chain: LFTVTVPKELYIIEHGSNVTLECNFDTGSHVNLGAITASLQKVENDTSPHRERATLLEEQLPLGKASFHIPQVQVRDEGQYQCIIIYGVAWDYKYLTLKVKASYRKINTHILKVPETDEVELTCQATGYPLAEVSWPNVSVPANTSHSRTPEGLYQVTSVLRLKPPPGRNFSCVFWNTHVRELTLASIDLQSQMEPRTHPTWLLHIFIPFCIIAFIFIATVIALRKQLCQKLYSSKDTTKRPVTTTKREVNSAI
Experiment: flow cytometry, inhibition of soluble PD1-Fc binding to hPDL2-expressing HEK293 cells

B1: Compound 8 (peptide)
peptide: SNTSESFKFRVTQLAPKAQIKE-NH2
modifications: not fully specified (residue 8)
  EC50: 0.722 nM
